Results from paper PMC8368996, “Interactions between AMOT PPxY motifs and NEDD4L WW domains function in HIV-1 release” (The Journal of Biological Chemistry, 2021).
pKd: −log10 of the molar value. Like-named read-outs stand apart in the source and are kept apart here.

How the values were obtained:
[1] = target: AMOT PPxY2 P239L mutant peptide (UniProt Q4VCS5); assay: fluorescence polarisation; 1 nM Oregon Green-labelled PPxY peptide, 2-fold dilutions of WW domain; 20 mM Tris pH 7.5, 150 mM NaCl, 0.5 mM TCEP; 26 °C (legend: 25 °C)
[2] = target: AMOT PPxY1 peptide (residues 100-114), Oregon Green 488-labelled (UniProt Q4VCS5); assay: as above
[3] = target: AMOT PPxY1 A112K mutant peptide (UniProt Q4VCS5); assay: as above
[4] = target: AMOT PPxY1 E104K/E105K mutant peptide (UniProt Q4VCS5); assay: as above
[5] = target: AMOT PPxY1 peptide (residues 100-114), Oregon Green 488-labelled (UniProt Q4VCS5); assay: as above; remark: listed apart in the source
[6] = target: AMOT(1-300)-ALEXA488 (UniProt Q4VCS5); assay: fluorescence polarisation
Sequence of AMOT(1-300)-ALEXA488 (Q4VCS5 1-300): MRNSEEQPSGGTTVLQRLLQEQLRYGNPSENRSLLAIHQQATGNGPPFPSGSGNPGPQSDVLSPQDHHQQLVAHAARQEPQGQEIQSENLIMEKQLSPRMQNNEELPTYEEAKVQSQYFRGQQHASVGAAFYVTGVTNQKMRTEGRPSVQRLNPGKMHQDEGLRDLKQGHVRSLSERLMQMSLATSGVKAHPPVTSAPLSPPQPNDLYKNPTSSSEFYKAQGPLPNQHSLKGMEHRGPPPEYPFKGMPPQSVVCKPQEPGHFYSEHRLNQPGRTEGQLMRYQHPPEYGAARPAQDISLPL

[7] = target: AMOT PPxY3 (Homo sapiens) (UniProt Q4VCS5); details: cited from earlier work

Sequence of KIBRA WW1-WW2 (Q8IX03 6-86): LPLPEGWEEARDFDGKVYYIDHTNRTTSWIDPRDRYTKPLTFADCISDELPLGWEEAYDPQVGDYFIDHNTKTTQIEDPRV

Which results are given for NEDD4L WW3 domain (domain or fragment)?
fold reduction of binding against wt PPxY2 [1]: 2.8 fold; pKd [2]: 5.35; pKd [3]: 4.40; pKd [4]: 4.51; pKd [5]: 5.32

With “full-length recombinant NEDD4L (isoform 2) (enzyme)” as the substance, how does the pKd [6] read?
The pKd was 5.57.

With KIBRA WW1-WW2 (from UniProt Q8IX03) as the substance, how does the pKd [7] read?
The pKd was 7.02.
